From PMC5874916 (2018)

What was measured:
[1] = molecular target: T1, 6xHis-tagged WT RTp51/p66 heterodimer purified from E. coli (HIV-1, UniProt P04585 588-1027); assay: BLI
[2] = molecular target: T1, 6xHis-tagged WT RTp51/p66 heterodimer …; assay: BLI; remark: listed apart in the source

B1: purified recombinant eEF1A1 (OriGene), biotinylated (natural protein)
chain: MGKEKTHINIVVIGHVDSGKSTTTGHLIYKCGGIDKRTIEKFEKEAAEMGKGSFKYAWVLDKLKAERERGITIDISLWKFETSKYYVTIIDAPGHRDFIKNMITGTSQADCAVLIVAAGVGEFEAGISKNGQTREHALLAYTLGVKQLIVGVNKMDSTEPPYSQKRYEEIVKEVSTYIKKIGYNPDTVAFVPISGWNGDNMLEPSANMPWFKGWKVTRKDGNASGTTLLEALDCILPPTRPTDKPLRLPLQDVYKIGGIGTVPVGRVETGVLKPGMVVTFAPVNVTTEVKSVEMHHEALSEALPGDNVGFNVKNVSVKDVRRGNVAGDSKNDPPMEAAGFTAQVIILNHPGQISAGYAPVLDCHTAHIACKFAELKEKIDRRSGKKLEDGPKFLKSGDAAIVDMVPGKPMCVESFSDYPPLGRFAVRDMRQTVAVGVIKAVDKKAAGAGKVTKSAQKAQKAK
modifications: biotin (EZ-Link-sulfo-NHS-biotin)
Kd [1]: 3.48 nM | koff [2]: 0.000475 s⁻¹
